Data on 1 substance can be found in patent US8932825B2.

The target of the experiment is Kringle 3 domain of human plasminogen (K3) with a C-terminal hexa-histidine tag, made in P. pastoris (human) (UniProt P00747).

Consider “beta 1,4-galactosyltransferase from bovine milk (from UniProt P08037) (enzyme)”, for which the increase in mass by MALDI-TOF mass spectrometry of the protein and of its released N-glycans was 325 Da.
